Measurements reported in PMC6499997, “SGIP1α functions as a selective endocytic adaptor for the internalization of synaptotagmin 1 at synapses” (Molecular Brain, 2019).

Biological target: T1, Recombinant human GST-Syt1-C2AB domain (human, UniProt P21579 81-422)
T1 construct: human synaptotagmin 1, cytoplasmic C2AB domains (C2A and C2B); Construct was a gift (Dr. Namgi Lee); also called C2AB fusion protein; GST-fused cytoplasmic (C2AB) domains of Syt1; not shown: GST, N-terminal, kept
Test: pull-down; GST fusion protein on beads incubated with cleared extracts of transfected HEK293T cells (1 mg at 1 mg/ml) for 4 h at 4 °C; lysis buffer 20 mM Tris-HCl pH 8.0, 137 mM NaCl, 2 mM EDTA, 1% Triton X-100; bound proteins detected by immunoblot for HA
Conditions: one partner purified

T1 sequence (P21579 81-422): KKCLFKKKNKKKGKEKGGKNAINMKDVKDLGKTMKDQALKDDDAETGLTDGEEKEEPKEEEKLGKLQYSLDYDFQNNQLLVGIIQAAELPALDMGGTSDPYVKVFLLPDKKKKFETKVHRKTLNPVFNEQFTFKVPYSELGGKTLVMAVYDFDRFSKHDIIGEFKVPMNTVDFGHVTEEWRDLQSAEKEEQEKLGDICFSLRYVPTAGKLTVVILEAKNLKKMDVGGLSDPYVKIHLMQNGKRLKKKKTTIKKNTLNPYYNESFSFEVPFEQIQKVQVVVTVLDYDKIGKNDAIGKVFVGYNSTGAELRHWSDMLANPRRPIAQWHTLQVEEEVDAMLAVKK

B1: HA-SGIP1α-mut (W771A/K781A) (natural protein, mouse, UniProt Q8VD37-6 1-854, looked up)
chain: MMEGLKKRTRKAFGIRKKEKDTDSTGSPDRDGMQGKKKAQKTQLLLTSCFWLRALSLTLSQQPSPHEPPYHSKAECAREGGKKASKKSNGAPNGFYAEIDWERYNSPELDEEGYSIRPEEPGSTKGKHFYSSSESEEEEESHKKFNIKIKPLQSKDVLKNAATVDELKASIGNIALSPSPVRKSPRRSPGAIKRNLSSEEVARPRRSTPTPELTSKKPLDDTLALAPLFGPPLESAFDEQKTEVLLDQPEIWGSGQPMNPSTESPELARPFPTGTPPPLPPKTVPATPPRTGSPLTVATGNDQAATEAKIEKLPSISDLDSIFGPVLSPKSVAVNTEEKWVHFSDASPEHVTPELTPREQVVTPPAASDIPADSPAPAPPGPTGSAGPPGPPGPRHVPSPLNLEEVQKKVAEQTFIKDDYLETLSSPKECGLGQRATPPPPPPPTYRTVVSSPGPGSGSGTGTTSGASSPARPATPLVPCSTTPPPPPPRPPSRPKLPPGKPGVGDVSRPFSPPIHSSSPPPIAPLARAESTSSISSTNSLSAATTPTVENEQPSLVWFDRGKFYLTFEGSSRGPSPLTMGAQDTLPVAAAFTETVNAYFKGADPSKCIVKITGEMVLSFPAGITRHFANNPSPAALTFRVVNSSRLEHVLPNPQLLCCDNTQNDANTKEFWVNMPNLMTHLKKVSEQKPQATYYNVDMLKYQVSAQGIQSTPLNLAVNWRCEPASTDLRIDYKYNTDAMSTAVALNNVQFLVPIDGGVTKLQAVLPPAVANAEQQRILWAIPDISQKSENGGVGSLLARFQLSEGPSKPSPLVVQFTSEGSTLSGCDIELVGAGYRFSLIKKRFAAGKYLADN
notes: numbers count on: SGIP1α (NM_001285852.1); Made by site-directed mutagenesis; also called HA-SGIP1α mutant W771A/K781A; W771A/K781A mutant; source: HEK293T, transfected, in lysate
  relative band intensity (SGIP1α = 1): 0.2 relative to SGIP1α
